Measurements published in publication PMC3999280.

Biological target: LdtRLas ('Candidatus Liberibacter asiaticus', UniProt A0ABN4AZS1 1-171)
Assay: competition
Settings: protein: recombinant; tags: N-terminal His6 removed by TEV; chain copies: 2; label: none; blunt

B1: CD-3 (dsDNA)
DNA 1: TCTTCTAATATTCCTTGTATTTTAATTATGTTCGAATTTTATTTT
DNA 2: AAAATAAAATTCGAACATAATTAAAATACAAGGAATATTAGAAGA
B1: binds.
